Measurements from the DeepSol protein solubility set.

assay: soluble on expression in E. coli; label from the status in PepcDB or PDB records

Soluble on expression in E. coli, not soluble:
MGSDKIHHHHHHMRNTDTYSYLVRDGHDLVHDPVPGILGPRPIGWISTCDSSGRPRLQTYSFFGIFNYVPPIVGFASVGGTESVNNAELTGEFAYNLATRPLAGCVNQTIVPALTEMDEFERSGLTKIRSIAIAAPRVAESPVSLECRVTSIQQLNGLDSEALNTWLVLGEVVAVHINRELLCDGFYDTVAAQPILRGGGACDYFEVLQAGKFRMTHPR
MRMILMFDMPTETAEERKAYRKFRKFLLSEGFIMHQFSVYSKLLLNNTANNAMIGRLKVNNPKKGNITLLTVTEKQFARMVYLHGERNTSVANSDSRLVFLGDSYDQDLEHHHHHH
MKLGVVTRKGKRQDDIRMFSQFFEVKVYEIPEELPELIDEPAEILRLPDDFDVDMIVSFAAHPDINLELIKQAAERGIGLVIISGGAKGGAYKQLKEEGEKRGVRVVWEEICCATPKVEDERTREFFEHFGAPEVEVEVENGKVKDVRVKRSAFCGATYYVAEKIKGLSVEEAPTKAGYYTQIYPCLAPRGHEGGIHKAARAHKRAVEKAIEKSK
MAGKKTITINGVEMEASEEQTVLQLLNNSSIEVPQVCYHPSLGPIETCDTCIVSINGELKRSCSAELKDGDVIDTLSPDVKKAQVIGMDKILYNHELYCTVCDYNNGGCEIHNTVKEMKINHQSIPFDHKPYHKDESHPFYRYDPDQCILCGRCVEACQDVQVTETLTIDWERKRPRVIWDNDVPINESSCVSCGHCSTVCPCNAMMEKGMEGEAGYLTGINNETLRPMIEITKGVETGYGSILAISDMESAMRDERIKKTKTVCTYCGVGCSFDVWTKGRDILKVEPQEEAPANGISTCVKGKFGWDFVNSEERLTKPLIREGDHFREAEWEEALLLIASKFTELKEAFGPDSLAFITSSKCTNEESYLMQKLARGVIGTNNVDNCSRYCQSPATAGLFRTVGYGGDSGSITDIAQADLVLIIGSNTSESHPVLSTRIKRAHKLRGQKVIVADIRKHEMAERSDLFVQPRAGSDIVWLNAIAKYLIENGKADERFLRERVNGRDEYVKSLAPYTLEYAEEKTGIDQETLIQMAEMIGQADSVCALWAMGVTQHIGGSDTSTAISNLLLVTGNYGKPGAGSYPLRGHNNVQGASDFGSMPDRLPGYEKVTDEQVRQKYERVWGVPLPKEPGMTNHEMIEKIHSGQLKAMYVKGEEMGLVDSNINHVHAAYEKLDFFVVQDIFLSRTAEFADVVLPASPSLEKEGTFTNTERRIQRLYQVFEPLGESKPDWQIIMEVANKLGAGWLYEHPADIMEEAAKLSPIYAGVTYERLEGYNSLQWPVNADGKDSPLLFTERFPFPDGKAILYPVQWTEPKEFGEEYDIHVNNGRLLEHFHEGNLTYKSKGISEKTPEVFLEISPELAAERGIQDGTLVRLTSPFGNVKVKCLITDRVKGKEVYLPMNDSGEAAINLLTGSHADKDTDTPAYKETSAKMEILKHDGISPLPKINHRNGNPQPQIGVQVHKKWARKDYIFPGDAVKRGM
MGSDKIHHHHHHMRFIAGPLNKQLLQNLLGEVIESCTRVRAAVAYASRDNMKLFEACAQHLKPLEFFGRYDHTVAVDPAVLKWFLDKASPNYDCKLVPDILHAKIIWWVDAGAYIGSANLSDRAWISNIEAGTFLPHDELVETGMERELQRFFEEVDDRARPLTKEIYQEQLRLADRRSELSKREYGLEQQFDKDRLLPKNHGLVFVDTKRSSEKRFQKFEQDWNDTLQVMRSIASRVAAPGAKPAWIDASVAPGVQADQFLHAYYYKQVKDGNRHPYEEFFDRNSKNPELALRDALEWWHDADFDHSFEERTIYEWSPRLRELLARDRILKLTEQEFVDAVSRVHAIRDHAIKQENEHLGLPDRPQAGDDKVEKFGEWLWRQRSREGRTVLELLNYVVWGNGSVSARLWNAIRSDDWAIPHIGLSSLGEIVGWARPDEYPPRNMRTSKGLRALGYNVRIGV
MDASYSSSRPKKLNYTSYTSLKSVLKFLSVKKREQIHIHIPELRSVNALLPYAHEEVILDKFEIMIQNRSYLFKKLAEKAPKPEGVARRRPEYEYAEYNRLLVMDLGPPSLFDMNDLHHLWRPMGNQGPDRLSFGDLDSLEKRRLRFRRENRLQDSSEHGRTGNCEITISEEDGTAITVTKEIPVDIAYEKIFDAFFSNGSRIKLLKVQSFPDFLMRKDLLTLKVREIDCSSTASIDILELAPFLDHSSLKKLTLNVTNTNVDLLMLPLVQNCPVLRIVEAGTFLSRMLKTTLLSALQNQKLEIFPDIVIIESFPQLVQSWATSSRPIGSLVQVGIREDYKEVLDILDFLKESHGAHPAIIKKLENTDFSNGLSMLIDGDLELAIYGGGKISEEGLTRPQPCKWSLCMEVMKRGDTIPR
